Where a name gives a salt, the structure may show the parent alone. Read-outs that look alike come from different tables or passages of the source. Starred links: 1 amine or outer side, 2 acyl side, 3 side chain; linkers in the order of their positions; H or OH if unused. Non-standard residues stand in square brackets, D forms with d. Residues, ends and D or L forms follow the SMILES beside them. Groups on a side chain read outwards from the residue. *: point of attachment. F(4amPEG2NHDOTA-Lu) = lutetium complex of (S)-2,2',2''-(10-(1-(4-(2-amino-2-carboxyethyl)phenyl)-3,12-dioxo-5,8-dioxa-2,11-diazatridecan-13-yl)-1,4,7,10-tetraazacyclododecane-1,4,7-triyl)triacetic acid (Phe with 4-aminomethyl-PEG2-DOTA-Lu), O=C([O-])CN1CCN(CC(=O)[O-])CCN(CC(=O)NCCOCCOCC(=O)NCc2ccc(C[C@H](N[*:1])C(=O)[*:2])cc2)CCN(CC(=O)[O-])CC1.[Lu+3]; F(4OEtNHDOTA-Lu) = lutetium complex of (S)-2,2',2''-(10-(2-((2-(4-(2-amino-2-carboxyethyl)phenoxy)ethyl)amino)-2-oxoethyl)-1,4,7,10-tetraazacyclododecane-1,4,7-triyl)triacetic acid (Phe with 4-O-ethylamino-DOTA-Lu), O=C([O-])CN1CCN(CC(=O)[O-])CCN(CC(=O)NCCOc2ccc(C[C@H](N[*:1])C(=O)[*:2])cc2)CCN(CC(=O)[O-])CC1.[Lu+3]; COpipzaa = 4-(carboxymethyl)piperazine-1-carbonyl, O=C(O)CN1CCN(C(=O)*)CC1; hS(Pr) = O-propyl-L-homoserine, CCCOCC[C@H](N[*:1])C(=O)[*:2]; Phe(4-CH2NH2) = NCc1ccc(C[C@H](N)C(=O)O)cc1; Piperazinyl(4-CH2COOH) = O=C(O)CN1CCN(*)CC1; NMeF = CN[C@@H](Cc1ccccc1)C(=O)O; Ahp(2) = CCCCC[C@H](N)C(=O)O; hSer = N[C@@H](CCO)C(=O)O; AEEA = NCCOCCOCC(=O)O; CO = O=C([*:1])[*:2]; Propyl = CCC*
Key:
mouse FAP [1] = biological target: T1, mouse FAP (Mus musculus, UniProt P97321); experiment: Surface plasmon resonance (SPR) for peptide affinity, mouse FAP; assay type: binding
T1 construct: biotinylated His, Avi tag, mouse FAP (26-761, FAP-M82Q5); His; Avi tag (biotinylated); purchased AcroBiosystems FAP-M82Q5
T1 sequence (P97321 26-761): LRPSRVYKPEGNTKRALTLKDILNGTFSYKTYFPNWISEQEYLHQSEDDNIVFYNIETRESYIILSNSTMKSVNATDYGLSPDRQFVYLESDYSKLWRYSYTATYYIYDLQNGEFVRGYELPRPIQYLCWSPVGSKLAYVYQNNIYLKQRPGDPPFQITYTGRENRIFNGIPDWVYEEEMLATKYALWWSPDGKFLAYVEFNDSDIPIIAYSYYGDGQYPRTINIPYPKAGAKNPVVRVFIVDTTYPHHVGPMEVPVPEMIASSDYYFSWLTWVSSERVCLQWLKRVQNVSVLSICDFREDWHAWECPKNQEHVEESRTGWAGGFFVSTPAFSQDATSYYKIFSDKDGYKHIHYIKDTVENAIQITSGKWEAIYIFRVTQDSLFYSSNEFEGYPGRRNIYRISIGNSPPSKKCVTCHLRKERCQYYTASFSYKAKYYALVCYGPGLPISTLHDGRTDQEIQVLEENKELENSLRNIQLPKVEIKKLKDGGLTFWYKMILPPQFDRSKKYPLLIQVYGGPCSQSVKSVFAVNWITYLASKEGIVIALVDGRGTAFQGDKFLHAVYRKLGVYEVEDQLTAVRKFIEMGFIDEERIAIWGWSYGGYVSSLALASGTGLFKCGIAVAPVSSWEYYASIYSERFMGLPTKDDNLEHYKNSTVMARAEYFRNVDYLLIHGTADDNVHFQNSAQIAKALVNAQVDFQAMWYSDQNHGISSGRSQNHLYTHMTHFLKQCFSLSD
How it was run: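 KD values come from a 1:1 kinetic fit of single-cycle SPR data: 8 peptide concentrations, 25 °C, 30 μL/min, HEPES-buffered saline pH 7.6 with 2% DMSO. Targets were His/Avi-tagged human (26-760) or mouse (26-761) FAP, amine-coupled to CM5 or held on a CAPture chip.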

human FAP [2] = biological target: T2, human FAP (Homo sapiens, UniProt Q12884); experiment: Enzymatic FAP competition assay (Z-Gly-Pro-AMC fluorescence), human FAP; assay type: biochemical; details: read-out: h. FAP, Enz., IC50
T2 construct: the biotinylated His, Avi tag, human FAP (26-760, FAP-H82Q6); His; Avi tag (biotinylated); purchased AcroBiosystems FAP-H82Q6
T2 sequence (Q12884 26-760): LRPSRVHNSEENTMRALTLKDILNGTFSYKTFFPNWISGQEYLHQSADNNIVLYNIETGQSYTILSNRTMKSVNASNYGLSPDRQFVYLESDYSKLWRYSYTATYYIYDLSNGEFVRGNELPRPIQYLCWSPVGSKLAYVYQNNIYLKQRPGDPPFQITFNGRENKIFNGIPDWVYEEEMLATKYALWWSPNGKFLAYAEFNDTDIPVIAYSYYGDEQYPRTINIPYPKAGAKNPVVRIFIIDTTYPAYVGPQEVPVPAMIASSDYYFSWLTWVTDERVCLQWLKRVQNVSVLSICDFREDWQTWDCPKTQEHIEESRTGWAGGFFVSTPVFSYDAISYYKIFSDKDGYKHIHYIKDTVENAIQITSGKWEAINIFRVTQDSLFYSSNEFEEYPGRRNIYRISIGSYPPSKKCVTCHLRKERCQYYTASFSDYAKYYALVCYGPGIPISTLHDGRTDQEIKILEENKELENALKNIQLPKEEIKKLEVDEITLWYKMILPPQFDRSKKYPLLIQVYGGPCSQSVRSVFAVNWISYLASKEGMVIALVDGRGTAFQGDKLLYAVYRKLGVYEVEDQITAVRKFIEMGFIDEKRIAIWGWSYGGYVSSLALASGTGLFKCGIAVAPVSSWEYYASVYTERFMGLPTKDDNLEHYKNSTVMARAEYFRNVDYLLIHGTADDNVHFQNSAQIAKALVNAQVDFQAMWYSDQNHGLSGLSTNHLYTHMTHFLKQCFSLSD
How it was run: (§1)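 IC50 values come from curve fitting of duplicate % inhibition data on AMC fluorescence (ex 380, em 460 nm) after 4 h at 22-24° C with 50 μM Z-Gly-Pro-AMC. Beforehand, peptides up to 1 μM (14 levels) sat 24 h with 0.01 nM human (26-760) or mouse (26-761) tagged FAP in phosphate buffer pH 7.5, NaCl, Tween20, 1% DMSO.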

human FAP [3] = biological target: T2, human FAP; experiment: Surface plasmon resonance (SPR) for peptide affinity, human FAP; assay type: binding; details: read-out: h. FAP, SPR, KD
Procedure: Peptide affinities (KD) were determined by SPR using a Biacore™ 8K device (Cytiva) towards the following proteins: biotinylated His, Avi tag, human FAP (26-760, FAP-H82Q6), biotinylated His, Avi tag, mouse FAP (26-761, FAP-M82Q5), His tag, human DPP4 (34-766, DP4-H82E3), all purchased from AcroBiosystems and His tag, mouse DPP4 (29-760, 954-SE) from R&D Systems. The FAP proteins and their homologous were diluted to a concentration of 2 μg/mL into acetate buffer pH 5.5, then immobilized onto a CM5 sensorchip (Cytiva, BR-1005-30) to reach a response around 2000 R U. The running buffer HBS-EP+pH 7.6 (20× from Teknova CAT. No: H8022) contained 10 mM HEPES pH 7.6, 150 mM NaCl, 3 mM EDTA, 0.05% Tween20 and 2% DMSO. Experiments were carried out at 25° C. using a flow rate of 30 μL/min. Compounds were tested in single cycle kinetic mode at 8 different concentrations. Curve fitting was performed using the Biacore™ 8K evaluation software. The sensorgrams were fitted by applying a 1:1 binding model to calculate kinetic rate constants and equilibrium dissociation constants (KD).
For this assay, the setup had the same conditions (flow rate, running buffer, peptide dilution) as described above for the CM5 method. The oligo CAP reagent obtained in the CAPture Kit (Ref. 28920234) was 1/5 diluted into running buffer and used with a contact time of 300 s at a flow rate of 2 μL/min. The human and mouse FAP constructs described above were used (from AcroBiosystems or produced in house). The FAP proteins were diluted to a concentration of 2 μg/mL into acetate pH 5.5, 0.05% Tween20 and used with a contact time of 600 s at a flow rate of 10 μL/min. The peptides were tested with an association time of 280 s followed by a dissociation time of 3000 s at a flow rate of 30 μL/min. The regeneration was done using the regeneration solution (8 M guanidine-HCl, 1 M NaOH) as obtained with a contact time of 270 s at a flow rate of 10 μL/min. […] The compounds marked with an asterisk were tested against human and mouse DDP4.

mouse FAP [4] = biological target: T1, mouse FAP; experiment: Enzymatic FAP competition assay (Z-Gly-Pro-AMC fluorescence), mouse FAP; assay type: biochemical; details: read-out: m. FAP, Enz., IC50
How it was run: as §1

| Kd (mouse FAP [1]) [nM] | Kd (mouse FAP [1]; values marked ** : including further experimental repetition) [nM] | IC50 (human FAP [2]) [nM] | Kd (human FAP [3]) [nM] | IC50 (mouse FAP [4]) [nM] | Compound |
| --- | --- | --- | --- | --- | --- |
| < 0.011 | < 0.06 | 0.016 | < 0.009 | 0.061 | Gly-Gly-NMePhe-F(4OEtNHDOTA-Lu)-Ahp-Trp-Gly-Tyr-Asp-D-Pro (cyclo(GG[NMeF][F(4OEtNHDOTA-Lu)][Ahp(2)]WGYD[dP]); also: Lu complex of DOTA) [Example C23] |
| < 0.036 | – | 0.009 | < 0.008 | 0.023 | Gly-Gly-NMePhe-F(4amPEG2NHDOTA-Lu)-hS(Pr)-Trp-Gly-K(COpipzaa)-Asp-D-Pro (cyclo(GG[NMeF][F(4amPEG2NHDOTA-Lu)][hS(Pr)]WGK(COpipzaa)D[dP]); also: Lu complex) [Example C2] |
| 0.36 | – | 0.104 | 0.118 | 0.737 | CCCCC[C@@H]1NC(=O)[C@H](Cc2ccc(O)cc2)NC(=O)[C@H](Cc2ccccc2)N(C)C(=O)CNC(=O)CNC(=O)[C@H]2CCCN2C(=O)[C@H](CC(=O)O)NC(=O)[C@H](Cc2ccc(O)cc2)NC(=O)CNC(=O)[C@H](Cc2c[nH]c3ccccc23)NC1=O [Example A52, Gly-Gly-NMePhe-Tyr-Ahp-Trp-Gly-Tyr-Asp-D-Pro] (cyclo([Ahp(2)]WGYD[dP]GG[NMeF]Y)) |

| Compound | Kd (mouse FAP [1]) [nM] | Kd (mouse FAP [1]; values marked ** : including further experimental repetition) [nM] | IC50 (human FAP [2]) [nM] | Kd (human FAP [3]) [nM] | IC50 (mouse FAP [4]) [nM] |
| --- | --- | --- | --- | --- | --- |
| CCCOCC[C@@H]1NC(=O)[C@H](Cc2ccc(CNC(=O)COCCOCCN)cc2)NC(=O)[C@H](Cc2ccccc2)N(C)C(=O)CNC(=O)CNC(=O)[C@H]2CCCN2C(=O)[C@H](CC(=O)O)NC(=O)[C@H](CCCCNC(=O)N2CCN(CC(=O)O)CC2)NC(=O)CNC(=O)[C@H](Cc2c[nH]c3ccccc23)NC1=O [Example A2, 2-((9S,12S,15S,18S,24S,27S,32aR)-18-((1H-indol-3-yl)methyl)-12-(4-((2-(2-(2-aminoethoxy)ethoxy)acetamido)methyl)benzyl)-9-benzyl-24-(4-(4-(carboxymethyl)piperazine-1-carboxamido)butyl)-8-methyl-1,4,7,10,13,16,19,22,25,28-decaoxo-15-(2-propoxyethyl)dotriacontahydropyrrolo[1,2-a][1,4,7,10,13,16,19,22,25,28]decaazacyclotriacontin-27-yl)acetic acid TFA salt] (cyclo(D[dP]GG[NMeF][Phe(4-CH2NH2)](AEEA)[hSer](Propyl)WGK([CO-Piperazinyl(4-CH2COOH)]))) | < 0.023 | – | 0.012 | < 0.011 | 0.047 |

Source: patent publication US20250090699A1, “FAP TARGETING CYCLIC PEPTIDES AND CONJUGATES THEREOF” (Novartis AG, priority 2023, published 2025)
